In patent US6534281:

Experiments:
human C-peptide (human) [1] = experiment: sandwich immunoassay, one-step; 9101 on particles, labeled antibody 9103
[2] = target: modified C-peptide (human C-peptide having Arg-Arg bound to its N-terminal and Lys-Arg bound to its C-terminal) (human); experiment: sandwich immunoassay, one-step, against C-peptide calibration; modified C-peptide 5 ng/ml; 9101 on particles, labeled antibody CPT-3F-11
human proinsulin (human) [3] = target: human proinsulin (human) (UniProt P01308); experiment: sandwich immunoassay, one-step, against C-peptide calibration; proinsulin 50 ng/ml; 9101 on particles, labeled antibody 9103
human C-peptide (human) [4] = experiment: sandwich immunoassay, two-step; 9101 on particles, labeled antibody CPT-3F-11
human proinsulin (human) [5] = target: human proinsulin (human) (UniProt P01308); experiment: sandwich immunoassay, one-step, against C-peptide calibration; proinsulin 400 ng/ml; 9101 on particles, labeled antibody CPT-3-F11
human C-peptide (human) [6] = experiment: ELISA on immobilized C-peptide; labeled antibody 1.0 ug/ml, free C-peptide 0.1 ug/ml
human C-peptide (human) [7] = experiment: ELISA on immobilized C-peptide; labeled antibody 10 ug/ml, free C-peptide 0 ug/ml (reference)
human proinsulin (human) [8] = target: human proinsulin (human) (UniProt P01308); experiment: sandwich immunoassay, two-step, against C-peptide calibration; proinsulin 400 ng/ml; 9101 on particles, labeled antibody CPT-3-F11
[9] = target: modified C-peptide (human C-peptide having Arg-Arg bound to its N-terminal and Lys-Arg bound to its C-terminal) (human); experiment: sandwich immunoassay, two-step, against C-peptide calibration; modified C-peptide 5 ng/ml; 9101 on particles, labeled antibody CPT-3F-11
human C-peptide (human) [10] = experiment: ELISA on immobilized C-peptide; labeled antibody 1.0 ug/ml, free C-peptide 0 ug/ml (reference)
[11] = target: modified C-peptide (human C-peptide having Arg-Arg bound to its N-terminal and Lys-Arg bound to its C-terminal) (human); experiment: sandwich immunoassay, two-step, against C-peptide calibration; modified C-peptide 5 ng/ml; 9101 on particles, labeled antibody 9103
human proinsulin (human) [12] = target: human proinsulin (human) (UniProt P01308); experiment: sandwich immunoassay, one-step, against C-peptide calibration; proinsulin 200 ng/ml; 9101 on particles, labeled antibody CPT-3-F11
human proinsulin (human) [13] = target: human proinsulin (human) (UniProt P01308); experiment: sandwich immunoassay, one-step, against C-peptide calibration; proinsulin 400 ng/ml; 9101 on particles, labeled antibody 9103
human proinsulin (human) [14] = target: human proinsulin (human) (UniProt P01308); experiment: sandwich immunoassay, two-step, against C-peptide calibration; proinsulin 200 ng/ml; 9101 on particles, labeled antibody CPT-3-F11
human C-peptide (human) [15] = experiment: ELISA on immobilized C-peptide; labeled antibody 10 ug/ml, free C-peptide 0 ug/ml
human C-peptide (human) [16] = experiment: ELISA on immobilized C-peptide; labeled antibody 0.1 ug/ml, free C-peptide 1.0 ug/ml
human C-peptide (human) [17] = experiment: ELISA on immobilized C-peptide; labeled antibody 1.0 ug/ml, free C-peptide 0 ug/ml
human C-peptide (human) [18] = experiment: ELISA on immobilized C-peptide; labeled antibody 0.0 ug/ml (blank), free C-peptide 10 ug/ml
human C-peptide (human) [19] = experiment: ELISA on immobilized C-peptide; labeled antibody 0.0 ug/ml (blank), free C-peptide 0.1 ug/ml
[20] = target: modified C-peptide (human C-peptide having Arg-Arg bound to its N-terminal and Lys-Arg bound to its C-terminal) (human); experiment: sandwich immunoassay, one-step, against C-peptide calibration; modified C-peptide 5 ng/ml; 9101 on particles, labeled antibody 9103
human C-peptide (human) [21] = experiment: ELISA on immobilized C-peptide; labeled antibody 0.1 ug/ml, free C-peptide 0.1 ug/ml
human C-peptide (human) [22] = experiment: sandwich immunoassay, one-step; 9101 on particles, labeled antibody CPT-3F-11
human C-peptide (human) [23] = experiment: ELISA on immobilized C-peptide; labeled antibody 10 ug/ml, free C-peptide 0.1 ug/ml
human C-peptide (human) [24] = experiment: ELISA on immobilized C-peptide; labeled antibody 0.1 ug/ml, free C-peptide 0 ug/ml (reference)
human proinsulin (human) [25] = target: human proinsulin (human) (UniProt P01308); experiment: sandwich immunoassay, two-step, against C-peptide calibration; proinsulin 200 ng/ml; 9101 on particles, labeled antibody 9103
human C-peptide (human) [26] = experiment: ELISA on immobilized C-peptide; labeled antibody 0.1 ug/ml, free C-peptide 10 ug/ml
human proinsulin (human) [27] = target: human proinsulin (human) (UniProt P01308); experiment: sandwich immunoassay, two-step, against C-peptide calibration; proinsulin 50 ng/ml; 9101 on particles, labeled antibody CPT-3-F11
human C-peptide (human) [28] = experiment: ELISA on immobilized C-peptide; labeled antibody 0.1 ug/ml, free C-peptide 0 ug/ml
human proinsulin (human) [29] = target: human proinsulin (human) (UniProt P01308); experiment: sandwich immunoassay, two-step, against C-peptide calibration; proinsulin 400 ng/ml; 9101 on particles, labeled antibody 9103
human C-peptide (human) [30] = experiment: ELISA on immobilized C-peptide; labeled antibody 10 ug/ml, free C-peptide 1.0 ug/ml
human C-peptide (human) [31] = experiment: ELISA on immobilized C-peptide; labeled antibody 10 ug/ml, free C-peptide 10 ug/ml
human proinsulin (human) [32] = target: human proinsulin (human) (UniProt P01308); experiment: sandwich immunoassay, one-step, against C-peptide calibration; proinsulin 200 ng/ml; 9101 on particles, labeled antibody 9103
human proinsulin (human) [33] = target: human proinsulin (human) (UniProt P01308); experiment: sandwich immunoassay, one-step, against C-peptide calibration; proinsulin 50 ng/ml; 9101 on particles, labeled antibody CPT-3-F11
human proinsulin (human) [34] = target: human proinsulin (human) (UniProt P01308); experiment: sandwich immunoassay, two-step, against C-peptide calibration; proinsulin 50 ng/ml; 9101 on particles, labeled antibody 9103
human C-peptide (human) [35] = experiment: sandwich immunoassay, two-step; 9101 on particles, labeled antibody 9103
human C-peptide (human) [36] = experiment: ELISA on immobilized C-peptide; labeled antibody 1.0 ug/ml, free C-peptide 1.0 ug/ml
human C-peptide (human) [37] = experiment: ELISA on immobilized C-peptide; labeled antibody 0.0 ug/ml (blank), free C-peptide 0 ug/ml
human C-peptide (human) [38] = experiment: ELISA on immobilized C-peptide; labeled antibody 0.0 ug/ml (blank), free C-peptide 1.0 ug/ml
human C-peptide (human) [39] = experiment: ELISA on immobilized C-peptide; labeled antibody 1.0 ug/ml, free C-peptide 10 ug/ml

Chain of modified C-peptide (human C-peptide having Arg-Arg bound to its N-terminal and Lys-Arg bound to its C-terminal) (human) (peptide, as listed by the source): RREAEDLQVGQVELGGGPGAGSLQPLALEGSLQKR
Chain of human C-peptide (human) (peptide, as listed by the source): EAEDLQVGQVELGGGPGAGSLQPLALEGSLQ
Chain of UniProt P01308 (P01308 25-110): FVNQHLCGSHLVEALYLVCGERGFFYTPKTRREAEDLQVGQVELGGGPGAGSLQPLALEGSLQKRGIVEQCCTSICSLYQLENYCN

What does the source list for “anti-human C-peptide monoclonal antibody 9101 (Medix Biochemica)”?
2S/N value (human C-peptide (human) [1]): 0.222 ng/mL; Cross-reactivity (%) to Modified C-peptide [2]: 9.3%; Cross-reactivity (%) to Human Proinsulin (human proinsulin (human) [3]): 19.7%; 2S/N value (human C-peptide (human) [4]): 0.009 ng/mL; Cross-reactivity (%) to Human Proinsulin (human proinsulin (human) [5]): 11.7%; Absorbance (absorbance at 405 nm) (human C-peptide (human) [6]): 0.298; Binding Ratio (human C-peptide (human) [6]): 17.6%; Binding Ratio (human C-peptide (human) [7]): 100%; Cross-reactivity (%) to Human Proinsulin (human proinsulin (human) [8]): 12.1%; Cross-reactivity (%) to Modified C-peptide [9]: 1.7%; Binding Ratio (human C-peptide (human) [10]): 100%; Cross-reactivity (%) to Modified C-peptide [11]: < 0.7%; Cross-reactivity (%) to Human Proinsulin (human proinsulin (human) [12]): 17.8%; Cross-reactivity (%) to Human Proinsulin (human proinsulin (human) [13]): > 15%; Cross-reactivity (%) to Human Proinsulin (human proinsulin (human) [14]): 11.8%; Absorbance (absorbance at 405 nm) (human C-peptide (human) [15]): 1.98; Absorbance (absorbance at 405 nm) (human C-peptide (human) [16]): 0.013; Binding Ratio (human C-peptide (human) [16]): 1%; Absorbance (absorbance at 405 nm) (human C-peptide (human) [17]): 1.69; Absorbance (absorbance at 405 nm) (human C-peptide (human) [18]): 0; Binding Ratio (human C-peptide (human) [18]): 0%; Absorbance (absorbance at 405 nm) (human C-peptide (human) [19]): 0; Binding Ratio (human C-peptide (human) [19]): 0%; Cross-reactivity (%) to Modified C-peptide [20]: < 0.5%; Absorbance (absorbance at 405 nm) (human C-peptide (human) [21]): 0.141; Binding Ratio (human C-peptide (human) [21]): 11.1%; 2S/N value (human C-peptide (human) [22]): 0.008 ng/mL; Absorbance (absorbance at 405 nm) (human C-peptide (human) [23]): 0.331; Binding Ratio (human C-peptide (human) [23]): 17.1%; Binding Ratio (human C-peptide (human) [24]): 100%; Cross-reactivity (%) to Human Proinsulin (human proinsulin (human) [25]): 9.8%; Absorbance (absorbance at 405 nm) (human C-peptide (human) [26]): 0; Binding Ratio (human C-peptide (human) [26]): 0%; Cross-reactivity (%) to Human Proinsulin (human proinsulin (human) [27]): 10.7%; Absorbance (absorbance at 405 nm) (human C-peptide (human) [28]): 1.26; Cross-reactivity (%) to Human Proinsulin (human proinsulin (human) [29]): 8.4%; Absorbance (absorbance at 405 nm) (human C-peptide (human) [30]): 0.051; Binding Ratio (human C-peptide (human) [30]): 2.6%; Absorbance (absorbance at 405 nm) (human C-peptide (human) [31]): 0.001; Binding Ratio (human C-peptide (human) [31]): 0.1%; Cross-reactivity (%) to Human Proinsulin (human proinsulin (human) [32]): 18.1%; Cross-reactivity (%) to Human Proinsulin (human proinsulin (human) [33]): 19.6%; Cross-reactivity (%) to Human Proinsulin (human proinsulin (human) [34]): 12.8%; 2S/N value (human C-peptide (human) [35]): 0.11 ng/mL; Absorbance (absorbance at 405 nm) (human C-peptide (human) [36]): 0.042; Binding Ratio (human C-peptide (human) [36]): 2.5%; Absorbance (absorbance at 405 nm) (human C-peptide (human) [37]): 0; Binding Ratio (human C-peptide (human) [37]): 0%; Absorbance (absorbance at 405 nm) (human C-peptide (human) [38]): 0; Binding Ratio (human C-peptide (human) [38]): 0%; Absorbance (absorbance at 405 nm) (human C-peptide (human) [39]): 0.001; Binding Ratio (human C-peptide (human) [39]): 0%
